This test deals with T1, StrepII-CERT (human, UniProt Q9Y5P4-2 1-598, predominantly hyperphosphorylated (CERT^P); sites not given).
T1 construct: human CERT, UniProt Q9Y5P4-2, codon-optimised synthetic gene in pcDNA-SW; also called Strep-CERT; CERT^P; source: Freestyle 293F cells, transfected, purified (StrepTrap HP, SEC); not shown: StrepII-tag, N-terminal, kept
T1 sequence (looked up): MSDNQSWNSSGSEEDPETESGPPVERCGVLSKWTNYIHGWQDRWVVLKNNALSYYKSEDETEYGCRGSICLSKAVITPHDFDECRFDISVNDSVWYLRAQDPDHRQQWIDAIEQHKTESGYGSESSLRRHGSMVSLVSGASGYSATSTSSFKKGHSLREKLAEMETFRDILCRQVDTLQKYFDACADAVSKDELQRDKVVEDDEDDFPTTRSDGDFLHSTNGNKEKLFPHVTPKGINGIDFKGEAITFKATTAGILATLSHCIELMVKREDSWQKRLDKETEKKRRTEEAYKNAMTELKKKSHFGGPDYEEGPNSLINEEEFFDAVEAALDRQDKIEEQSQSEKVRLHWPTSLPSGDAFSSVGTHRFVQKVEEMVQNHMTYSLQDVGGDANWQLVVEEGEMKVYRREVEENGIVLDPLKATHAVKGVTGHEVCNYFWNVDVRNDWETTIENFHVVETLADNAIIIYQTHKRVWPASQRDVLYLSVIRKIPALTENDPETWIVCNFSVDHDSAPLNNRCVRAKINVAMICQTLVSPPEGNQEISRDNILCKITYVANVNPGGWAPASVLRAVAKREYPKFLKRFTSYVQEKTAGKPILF
Nature of the test: pull-down; pUL21-GST (1 μM) on glutathione magnetic beads, 5 μM purified prey, 60 min at room temperature, 20 mM Tris pH 8.5, 200 mM NaCl, 0.1% NP-40, 1 mM DTT, 1 mM EDTA; eluted with glutathione, Coomassie SDS-PAGE. The conditions noted are these: both partners purified.

B1: pUL21-GST (natural protein)
chain: MELSYATTMHYRDVVFYVTTDRNRAYFVCGGCVYSVGRPCASQPGEIAKFGLVVRGTGPDDRVVANYVRSELRQRGLQDVRPIGEDEVFLDSVCLLNPNVSSELDVINTNDVEVLDECLAEYCTSLRTSPGVLISGLRVRAQDRIIELFEHPTIVNVSSHFVYTPSPYVFALAQAHLPRLPSSLEALVSGLFDGIPAPRQPLDAHNPRTDVVITGRRAPRPIAGSGAGSGGAGAKRATVSEFVQVKHIDRVGPAGVSPAPPPNNTDSSSLVPGAQDSAPPGPTLRELWWVFYAADRALEEPRADSGLTREEVRAVRGFREQAWKLFGSAGAPRAFIGAALGLSPLQKLAVYYYIIHRERRLSPFPALVRLVGRYTQRHGLYVPRPDDPVLADAINGLFRDALAAGTTAEQLLMFDLLPPKDVPVGSDVQADSTALLRFIESQRLAVPGGVISPEHVAYLGAFLSVLYAGRGRMSAATHTARLTGVTSLVLAVGDVDRLSAFDRGAAGAASRTRAAGYLDVLLTVRLARSQHGQSV
notes: HSV-1 strain KOS pUL21, UniProt F8RG07; the plasmid for the GST fusion is not described; also called Purified recombinant pUL21-GST; source: E. coli T7 Express lysY/Iq, purified (glutathione Sepharose 4B, SEC)
With B1, the binding result is reported as “binds”.

The record behind these values is PMC8389370, “pUL21 is a viral phosphatase adaptor that promotes herpes simplex virus replication and spread” (PLoS Pathogens, 2021).
